The record followed here is the DeepSol protein solubility set.

A short description of this series: soluble on expression in E. coli; label from the status in PepcDB or PDB records.
As for “MAHHHHHHMKKSINILVCNNYLIHDFLSFFKNSDIDVGTKMDFIQKKASQVRIILLNGNEIMPGINVNYLEQIKEVFINAKIYVRYVVQEVGTVSIMELGQLEQDNIPYERKLAGYVLPNVHVKIDSKTNVMKIKSDNVFSQYYNNGKLTSQAFDQGGFFKTKYVASLAENALLKIEGIHNDMENIPDEYYLYFKQRRDKMEKHPPGYLKRVPLQGQIWGNFHANRRNWKRKF”, the “soluble on expression in E. coli” value is on record as “not soluble”.

Take “MSFETKPNYLLLTNPDTPLSVCTSPYYSPSGKTASIPSSEASKPEGTNGQWSHLPTGATYVTDEFSSEFQIQNGSTAAQSGNANNYADPLSHRRYFNNVNGYNHHQFYDTASQASVSSPATSVTSSLSPPDSLSNGHTTQRHHIGKAISFCKVCGDKASGYHYGVTSCEGCKGFFRRSIQRKIDYRCLKQQVCEIKRESRNRCQYCRFKKCLDSGMSKDSVRQMKFRNAMRDDKSPDSVFVPEISTLERQEEVDAVYEAVLRAHTTFSFYTDIKIRSIVARPFNVRINEDSKMNRLNAWQIYAHEIDVDIKEVVNFVKEIPKFNFINGNDKAVLLRKNAFPLYLLRIVRGMSNRGLMLRDGRLIDFKSLQLLYGSLADEMLAFANHIITIGCTDGDIALFIVLILCQPLTTEQQFSTNFKSQLQLLEMFDFYKKVLFQKMTCRIDGCDTYKQLMKCIHELNRLNELHKQQLNILRENLSFLNLPPLVVEMFQLSTLPLPVNHNNQENQYTPAPEHQSPQPQQPTPNQQQTPVHC”: the “soluble on expression in E. coli” value is listed as “not soluble”.

As to “SLNSVTRLDGANRYEVAVNVSKQGWTSASTVIVANGKAYADVLSATPFAYRNNAPVLLTEASKLPTATKNRISQLKPSKVIVIGGTVSVQNGVVSEIKKLGVSSVERIGGANRYEVAANIANKLPSNSKAVIANGTAYADSLAIGAYAARNGIPILLTSSNSIPTATKNAMKSKGTTSTIVVGGEVSISSSVYKQLASPTRIGGSNRYEVAANVVKKYYSSAKNAIISNGYAYADGLTGSVLAAKQNRPMMFTNASSLPTPTREVIGSKNMTTFTVLGGTVSLQSNVVSQLKN”, the “soluble on expression in E. coli” value was “not soluble”.

For the sequence “MSGDDYMGAMALLGIKPDTDPLSIKRAYRRLLSRHHPDKIAGSGANAQQVRVATEKTSELHNAYRVVKARRGFALEHHHHHH”, the “soluble on expression in E. coli” value is listed as “not soluble”.

In the case of “GREPADMVLKGGRFFDLVTGELVASDIAICGDTVVGTCGDYKGRHEIDISGKIVVPGFIDTHLHIESSLVTPHEFDRCVLPYGVTTAICDPHEIANVLGAEGLQFFLDSAMETIMDIRVQLSSCVPATHLETSGADLPIEKLLPFRNHPKVIGLAEFMNFPGVIHKDPVCMAKLEAFQGQHIDGHAPLLSGAALNGYLAAGIRTEHECTSAAEALEKIRKGMHILVREGSVSKDLHALMPIITERLSPYLALCTDDRNPLDIAEQGHLDYMIRTAIASGVEPLAIYRAASISAAKAFGLRDRGLVAPGWRADLVVIDTLQNCKASMVLSGGRLVDDALFATRKPVAPVGLDSVKARPVLASHFGVPVTEGETPVMGVLPGKIITEHRRYKLPTDGNQTTVDLENDIIKVAVIERHGKNGNHANGFVQGFGLKKGAIASTVGHDSHNICVVGVSEDDMALAANRLGDIKGGFVVVEDGRVTGEIALPVAGLMSLEPYETVRDTLHTLRKAAYALGTTLEEPFLQVAFLPLPVIPHLKISDMGMVDVDRFA”, the “soluble on expression in E. coli” value is on record as “not soluble”.

Consider “MAGDPMIPVKNDPIDTRLAEMHEELRDLRNFPDSEFVGIIRELGFKCELCARCCTREFNDHVFLLDSDLERVRSIDPDAVTPAPYYEFCDQNGRFYVSGYALKTKPDGSCIFLENKRCRIYESRPSICRVYPHMLHREADETGKVDWRQISGLNEHGSYHSDLDDPACKEIALETRAYEEAYLQQVIGFFEAVKAHFRTNGLKHIQRTYDRKMREFLKGECDLEIFVYCKGGFEKQKLAKESERLEHHHHHH”, for which the “soluble on expression in E. coli” value is on record as “soluble”.

For the sequence “MSLFLKDDSIQIREVWNDNLQEEMDLIRDVVDDFPYVAMDTEFPGIVVRPVGTFKSNADYHYETLKTNVNILKMIQLGLTFSNEQGNLPTCGTDKYCIWQFNFREFDLDSDIFALDSIELLKQSGIDLAKNTLDGIDSKRFAELLMSSGIVLNENVHWVTFHSGYDFGYLLKLLTCQNLPDSQTDFFKLINVYFPTVYDIKHLMKFCNSLHGGLNKLAELLEVERVGICHQAGSDSLLTSCTFRKLKENFFVGPLHKYSGVLYGLGVENGQVAI”, the “soluble on expression in E. coli” value is reported as “soluble”.

“PSQVFKPLVSLFSPIEPSVYEARGRLPREQLGETRLDYDRTFQLASVEAARLGIAEPIGELYYSFEYNFFGAGFGDHDDPMGKSWLFFHGSDGRLLGQEVAGQGSWGERFYRLQYPIHGGRIAGLPGR”: the “soluble on expression in E. coli” value is “not soluble”.

Take “MIDVHCHLVDNKFKEDLDDVIGHAHATGIQKMINFPEFESQFEKSIGISKKWPGSVYTGIGIHPIQKRGKSAKMKHISKMEQFFVEHERDIICVGECGLDHTISQFKLTTEDFEEQETVFKWQIDLAKHFEKPLNVHSRSAARRTIEILLECHVAPDQVVLHAFDGTPGDLKLGLEAGYLFSIPPSFGKSEETTQLIESIPLSQLLLETDSPALGPEKGCKNVPANLRISAEIVAKIKKLEIDDIISATSTNANRIFKF”: the “soluble on expression in E. coli” value is “soluble”.

On to “MSLDYAQRAVQVDPPRRLTHEMDSWARNFVMLRTDVQGRPINRLEGVYVEHFPDDDSYHVTTPRAIGQQAGNPITIGVSKTAIMEQGGQRIVMNGDAHVHRQPDARNETLDVRSQQLILLPDDDVVFTDLPAQVNKGNSRMNGTGMHYNNKTRQLRVSAAADVEIAGTEGRKRQSTETPANSNQNKPEGHHHHHH”, for which the “soluble on expression in E. coli” value is on record as “soluble”.

For “MGSDKIHHHHHHMLICATCAVERDEPAPELCPICTDERQYVPEEGQKWLTLDGLAQQGQQTVLRENEPGLIGIRTEPKVGIGQTAQLVVTHEGSLLWDPVGYVDDSAVNAALERGPVLAIAASHPHMFGVQVEWSHRLGGVPVLVADADRRWLGRNDPVIEYWSGSHTIAEGLTLHQTGGHFPGSAVVHWAAGAAGRGVLLTGDSVYPNPDRRSISFMRSYPNHLPLSGAVALRIAAQLGELEFDRIYGNFNNVIASGAKAALHDSAQRHAAWARGDFDHLT”, the “soluble on expression in E. coli” value is “not soluble”.

Consider “MDIGINSDPPPRDWQLEKVVELSRAGIRPPTAGNREAIEAATGRPWTEWTTHDGELTGHGYAAVVNKGREEGQHYRQLGLLQAGCPTAESIYVRASPLQRTRATAQALVDGAFPGCGVAIHYANGDADPLFQTDKFAATQTDPARQLAAVKEKAGDLAQRRQALAPTIQLLKQAVCQADKPCPIFDTPWRVEQSKSGKTTISGLSVMANMVETLRLGWSENLPLSQLAWGKIAQASQITALLPLLTENYDLSNDVLYTAQKRGSVLLNAMLDGVKPEASPNVRWLLLVAHDTNIAMVRTLMNFSWQLPGYSRGNIPPGSSLVLERWRDAKSGERYLRVYFQAQGLDDLRRLQTPDAQHPMLRQEWRQPGCRQTDVGTLCPFQAAITALGQRIDRPSAPAVAMVLPKLAAALEHHHHHH”, for which the “soluble on expression in E. coli” value is “soluble”.

With “MTTQVVNVIGAGLAGSEAAYQIAKRGVQVRLYEMRPVRQTPAHHTDKFAELVCSNSLRANTLTNAVGVIKEEMRLMDSVIIRAADECSVPAGGALAVDRHEFAAKVTEYVKNHPNVTVMNEEITEIPEGPTIIATGPLTSPDLSAQLKELTGEDYFYFYDAAAPIVEKDSIDMNKVYLKSRYDKGEAAYLNCPMTEEEFDRFYEALIAAETVPLKEFEKEIFFEGCMPVEVMASRGRQTLVFGPMKPVGLEDPKTGKTPYAVVQLRQDDAAGTLYNIVGFQTHLKWGPQKEVLQLIPGLENAEIVRYGVMHRNTFINSPNLLRPTYQYKQRDDLFFAGQMTGVEGYVESAASGLLAGINAARLVKGEEPVVLPPVTAMGSMANYITATNAKNFQPMNANFGLFAPLEKKIKKKAERNEAYATRALETIRNFVNILEHHHHHH”, the “soluble on expression in E. coli” value is recorded as “soluble”.

For “MEFYDARKWCHYQSPVPSYLAYVPDLSTSNFLATYARAAFETNRFWIGLSRFDYFDPYLWDNGRPVTYTNFGTGTGNFVAEHTLNGKWYLYGNGAKNVFVCSYDPAAPPTFPPPFILTTRQSTITSANSCQPGGPISFLFAYSNDLDPQVVKDSWDLSNIDDYSGYSVYAIAKFDVLEEEDIVYFLDKKLATTYVHSHLSNSSLGFNGTTTGSDSLRIIEVGNVEGIESSQFLNFQKFFNNKDVTVCGSVCLILEKRYPNDEDISKTVSLVRYYHGIVYAVSSINPSGGTQSKAIYNLTSRTNGIFCSTDPSGGNQSKTIYNLTSKTNGLCNFAKDKDIAGLVTSVPMFYPPYPIYCANVLVSGQNITELPSMYVPQSIMYYTVFASVEDHGPLDNFQSFDFSWFNSDEPRYIQHLQSNSTVMDGVTSSGVYYIAPEIYTMKVQYNYTNKMEQAMQVRVYTYDGENSADWIPYCD”, the “soluble on expression in E. coli” value is given as “not soluble”.

As to “MGSDKIHHHHHHMTSSVASDLSSFVRFADIPPEFQPTDAHPIRVRSRLMPSGRRIARHTHAWAQVAYASRGVLRVATTGTTWMVPPSRAIWVPPHVTHEVVAVEDAFLRTLYITESTVPAGLDTPRVVEVSDLLREVIAALDTPGISATREQLLGALALDELTRSEPLPLSVPMPNEKRLRALCEAVIADPTHGESLEQWASSVGASTRTIARLFRQELGVSFSQWRQQAILARAIPLLSQGRPLSHVALELGYQSQSAFSAMFRRAFGESPRAFIERGSEHRVEDGERGDMETDNETAAQDRADVADVADVADDAGDAGDAGDTGDTGDTGDVGDVGDADDSEL”, the “soluble on expression in E. coli” value is given as “not soluble”.

Turning to “MGSDKIHHHHHHMKILITGATGFVGRRLVKSLSEHQLIILTRNINNAKNNLGSHHQYWQTLTDKSDLNDIDAVINLAGEPIVNKRWSNKQKKLICDSRWDITAALTQLISKSTTPPHTFISASAVGYYGRQDQNPVDETSGFHAEFSHDICQKWEDLALQAQSQQTRVCITRIGIVLGKNGGALAKMLPPFKLGLGGPIGSGEQGMSWIHVDDLISLMAYLLSNTDLQGIFNATAPQPVSNAKFAKALGNALNRPAKITTPPLALRLAMGEMSELLTTGQFVLPKRTLAAGFEFKYSDINSALDHITHSAN”, the “soluble on expression in E. coli” value is reported as “not soluble”.

On to “SGELGEHRASLLSNPIPEVKTLGELKQGQNNGNLDLESEPFGSHWLQGSKATTGRTSEEPEEEIPPEEMAGEELPETSNLDGPLQQDLEVEVVEMSHLSITERTPSVSTAKGRKKRSRRLLELAKPKTNWQCLRDRPSVYWTERFIEDTTLTITVPVVSQRMEELSRPKRFYQEYYNNNRTTPIWSIPRSTLEYQASNRLKQLATPKVRNNIWSINMSEVSQVSRAAQMAVPTPRTLRLAKPRPPATLLEEWDPMPKPKPYVSDYNRLLQLATPKALSEKCVPDRSPQWEVLDVTKNAVASSRIISLAQPKIRKDLNEGYNPYYISPASLVAQASPRIYELATPKYITKKV”, for which the “soluble on expression in E. coli” value is “soluble”.

With “MQRQEQLKKWLAEQYPGDEIQLEFAAADADFRRYFRAIWPDGASRIVMDAPPEHIGTDAYVKVRDIFSMVKVPEIYLRDRDQGFIVMEDLGKVTYLAALQHDERPFVHRHLLLEALDTLVDIQKASQPEVLPEYDETLLTRELNLFPEWFCAKELGKPLNFKQRQLWDAGVQALLPALLTQPKVFVHRDFIVRNLMLTPGTPGVLDFQDAVYGPISYDAVSLLRDAFIEWDEEFVLDLAIRYWEKARAAGLPVPEAFDDFYRAFEWMGVQRHLKVAGIFARLYHRDGKDKYLAEIPRFIKYLKRTTRRYAELAPFYQLLVDLVGRDATDEELQSSYPVLGVKGHLEHHHHHH”, the “soluble on expression in E. coli” value is listed as “not soluble”.
